Data as given in publication PMC2120123.

What was measured:
Assay in all cases: radioligand binding
[1] = target: CD45Δ826/CD44(Reg.I) fusion protein (mouse) (UniProt P06800)
[2] = target: CD44(GP85)Δ355, purified from transfected COS cells (mouse)
[3] = target: CD44(GP85)Δ320, purified from transfected COS cells (mouse)

Substance: Erythrocyte ankyrin (from UniProt P16157 1-1881) (natural protein)
- Ankyrin binding (cpm) [1]: 1160 cpm
- Kd [2]: 1 nM
- Kd [3]: 2.6 nM
